The values that follow come from patent US20120316071A1 (published 2012).

The target in assay [1] is T1, rHuman IGF-1 sR, CF (R&D Systems Cat#391-GR) (human, UniProt P08069 31-932).
T1 construct: Bought soluble receptor; The column head prints only 'IGF-1'; also called insulin-like growth factor-1 soluble receptor
Kind of assay: ECL Multispot (MSD) assay, antigen spotted on plate, 10 nM Fab; blank spot of this row 182.

For assay [2], the target named is T2, rHuman P-Cadherin/Fc Chimera, CF (R&D Systems Cat#861-PC) (human, UniProt P22223 108-654).
T2 construct: Bought reagent; Fc part of the bought chimera not given
The description is as above.

The target in assay [3] is T3, rHuman Erythropoietin R/Fc Chimera, CF (R&D Systems Cat#963-ER) (human, UniProt P19235 25-250).
T3 construct: Bought reagent; also called EPO R; EPO R/Fc; Fc part of the bought chimera not given
T3 sequence (looked up): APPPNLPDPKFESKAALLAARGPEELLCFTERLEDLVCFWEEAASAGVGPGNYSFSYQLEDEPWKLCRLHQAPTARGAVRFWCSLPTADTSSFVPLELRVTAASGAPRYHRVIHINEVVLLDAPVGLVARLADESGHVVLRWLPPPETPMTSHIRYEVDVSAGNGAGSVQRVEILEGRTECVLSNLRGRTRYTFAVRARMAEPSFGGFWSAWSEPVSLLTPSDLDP
The assay is described as above.

Assay [4] deals with T4, rHuman ErbB2/Fc Chimera, CF (R&D Systems Cat#1129-ER) (human, UniProt P04626 23-652).
T4 construct: Bought reagent; also called human epidermal growth factor 2 receptor; Fc part of the bought chimera not given
The description is as above.

For assay [5], the target named is T5, rHuman EGF R/Fc Chimera, CF (R&D Systems Cat#344-ER) (human, UniProt P00533 25-645).
T5 construct: Bought reagent; also called epidermal growth factor receptor; Fc part of the bought chimera not given
The assay is described as above.

For assay [6], the target named is T6, rHuman HGF R/c-MET/Fc Chimera, CF (R&D Systems Cat#358-MT/CF) (human, UniProt P08581 25-932).
T6 construct: Bought reagent; also called HGF R/Fc; hepatocyte growth factor receptor; Fc part of the bought chimera not given
The assay is described as above.

The target of assay [7] is T7, rHuman Notch-1/Fc Chimera, CF (R&D Systems Cat#3647-TK) (human, UniProt P46531 19-526).
T7 construct: Bought reagent; Fc part of the bought chimera not given
The assay is described as above.

Assay [8] concerns the target T8, rHuman CD44/Fc Chimera, CF (R&D Systems Cat#3660-CD) (human, UniProt P16070 21-220).
T8 construct: Bought reagent; Fc part of the bought chimera not given
The assay is described as above.

Assay [9] deals with T9, rHuman ErbB2/Fc Chimera, CF (R&D Systems Cat#1129-ER) (human, UniProt P04626 23-652).
T9 construct: Bought recombinant protein; Fc part of the bought chimera not given
Kind of assay: ECL multispot (MSD) assay, spotted antigen; Fab 2.00 (head prints uM).

In assay [10] the target is T10, rHuman HGF R/c-MET/Fc Chimera, CF (R&D Systems Cat#358-MT/CF) (human, UniProt P08581 25-932).
T10 construct: Bought recombinant protein; also called HGF R/Fc; Fc part of the bought chimera not given
Described as above.

The target in assay [11] is T11, rHuman P-Cadherin/Fc Chimera, CF (R&D Systems Cat#861-PC) (human, UniProt P22223 108-654).
T11 construct: Bought recombinant protein; Fc part of the bought chimera not given
The assay is described as above.

The target of assay [12] is T12, rHuman Erythropoietin R/Fc Chimera, CF (R&D Systems Cat#963-ER) (human, UniProt P19235 25-250).
T12 construct: Bought Fc chimera; also called EPO R/Fc; EPO R; Fc part of the bought chimera not given
T12 sequence (looked up): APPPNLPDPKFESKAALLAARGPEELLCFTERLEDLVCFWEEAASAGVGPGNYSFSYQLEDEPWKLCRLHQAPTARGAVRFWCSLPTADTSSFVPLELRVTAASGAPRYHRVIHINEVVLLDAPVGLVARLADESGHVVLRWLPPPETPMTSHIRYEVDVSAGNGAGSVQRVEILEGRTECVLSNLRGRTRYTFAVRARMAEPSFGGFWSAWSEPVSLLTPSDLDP
Kind of assay: Multispot ECL (MSD) titration; antigen spotted on plate; Fab 24.5 nM; blank spot 149.

In assay [13] the target is T13, rHuman ErbB2/Fc Chimera, CF (R&D Systems Cat#1129-ER) (human, UniProt P04626 23-652).
T13 construct: Bought Fc chimera; also called human epidermal growth factor 2 receptor; Fc part of the bought chimera not given
Described as above.

The target of assay [14] is T14, rHuman HGF R/c-MET/Fc Chimera, CF (R&D Systems Cat#358-MT/CF) (human, UniProt P08581 25-932).
T14 construct: Bought Fc chimera; also called HGF R/Fc; hepatocyte growth factor receptor; Fc part of the bought chimera not given
The description is as above.

Assay [15] deals with T15, rHuman Notch-1/Fc Chimera, CF (R&D Systems Cat#3647-TK) (human, UniProt P46531 19-526).
T15 construct: Bought Fc chimera; Fc part of the bought chimera not given
The description is as above.

The target of assay [16] is T16, rHuman CD44/Fc Chimera, CF (R&D Systems Cat#3660-CD) (human, UniProt P16070 21-220).
T16 construct: Bought Fc chimera; Fc part of the bought chimera not given
The assay is described as above.

The target of assay [17] is T17, rHuman IGF-1 sR (IGF-1 sR), CF (R&D Systems Cat#391-GR) (human, UniProt P08069 31-932).
T17 construct: Bought soluble receptor; also called insulin-like growth factor-1 soluble receptor
Described as above.

The target of assay [18] is T18, rHuman P-Cadherin/Fc Chimera, CF (R&D Systems Cat#861-PC) (human, UniProt P22223 108-654).
T18 construct: Bought Fc chimera; Fc part of the bought chimera not given
Described as above.

B1: Fab VH1-46_IGHD6-6*01_IGHJ1*01 S102A/S103P/S104F (APF) & L6_IGKJ1*01 (Fab, V domains shown)
VH: QVQLVQSGAEVKKPGASVKVSCKASGYTFTSYYMHWVRQAPGQGLEWMGIINPSGGSTSYAQKFQGRVTMTRDTSTSTVYMELSSLRSEDTAVYYCAREEYAPFSAEYFQHWGQGTLVTVSS
VL: not shown
notes: Tested as a Fab made in E. coli; also called H:APF & L:wt; APF triple mutant
On to B1, for which the ECL signal in assay [1] came out at 344; in [2] it was 449; in assay [3], 222; in assay [4] it was 221; in [5], 296; in assay [6], 319. Also, the ECL signal in assay [7] turned out to be 251; in [8], 221.

B2: Fab VH5-51_IGHD5-18*01>3_IGHJ4*01 G100K/G104T & V3-4_IGLJ1*01 (Fab, V domains shown)
VH: EVQLVQSGAEVKKPGESLKISCKGSGYSFTSYWIGWVRQMPGKGLEWMGIIYPGDSDTRYSPSFQGQVTISADKSISTAYLQWSSLKASDTAMYYCARRKYSYTYDYFDYWGQGTLVTVSS
VL: QTVVTQEPSFSVSPGGTVTLTCGLSSGSVSTSYYPSWYQQTPGQAPRTLIYSTNTRSSGVPDRFSGSILGNKAALTITGAQADDESDYYCVLYMGSGISYVFGTGTKVTVL
notes: Tested as a Fab; The constant parts are the same as for the parent Fab (CH1 with His6/Flag tags, lambda CL); also called KT double mutant; H:KT
Take B2: the results for the ECL signal/noise ratio in assay [9], in assay [10] and in assay [11] were 3.2, 6 and 4.3, respectively.

B3: Fab VH1-46_IGHD3-10*01_IGHJ4*01 & O1_IGKJ1*01 (Fab, V domains shown)
VH: QVQLVQSGAEVKKPGASVKVSCKASGYTFTSYYMHWVRQAPGQGLEWMGIINPSGGSTSYAQKFQGRVTMTRDTSTSTVYMELSSLRSEDTAVYYCAREYYYGSGSYYNDYFDYWGQGTLVTVSS
VL: DIVMTQTPLSLPVTPGEPASISCRSSQSLLDSDDGNTYLDWYLQKPGQSPQLLIYTLSYRASGVPDRFSGSGSGTDFTLKISRVEAEDVGVYYCMQRIEFPSWTFGQGTKVEIKR
notes: Germline library Fab expressed in E. coli; VH was cloned into Plasmid A (CH1 constant region, His6 and Flag tags); The kappa VL was cloned into Plasmid C (kappa CL)
As for B3, the ECL signal came out at 4530 in assay [12]; 241 in assay [13]; 211 in assay [14]; 434 in assay [15]; 267 in [16]; 239 in assay [17]. In addition, the ECL signal in [18] amounted to 257.
